# Reference: patent US20240384250A1 (UAB RESEARCH FOUNDATION, published 2024)
# T1: Fc-tagged human FGFR4 ectodomain (human, UniProt P22455 22-369)
# T1 construct: extracellular domain; Bought; also called Fc-FGFR4; not shown: Fc tag
# T1 sequence (looked up): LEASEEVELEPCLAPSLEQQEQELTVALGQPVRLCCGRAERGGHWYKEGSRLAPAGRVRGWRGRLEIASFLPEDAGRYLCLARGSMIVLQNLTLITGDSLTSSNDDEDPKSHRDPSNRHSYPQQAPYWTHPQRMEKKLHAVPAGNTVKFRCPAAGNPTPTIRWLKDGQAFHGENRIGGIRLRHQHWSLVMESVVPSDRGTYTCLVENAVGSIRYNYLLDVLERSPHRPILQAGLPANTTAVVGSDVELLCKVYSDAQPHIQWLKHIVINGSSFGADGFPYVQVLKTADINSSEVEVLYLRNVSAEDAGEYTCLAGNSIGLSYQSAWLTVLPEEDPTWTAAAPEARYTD
# T2: recombinant FGF23 protein (species not stated for the assay)
# T2 construct: also called fibroblast growth factor 23
# T2 sequence (Q9GZV9 25-251, species assumed, looked up): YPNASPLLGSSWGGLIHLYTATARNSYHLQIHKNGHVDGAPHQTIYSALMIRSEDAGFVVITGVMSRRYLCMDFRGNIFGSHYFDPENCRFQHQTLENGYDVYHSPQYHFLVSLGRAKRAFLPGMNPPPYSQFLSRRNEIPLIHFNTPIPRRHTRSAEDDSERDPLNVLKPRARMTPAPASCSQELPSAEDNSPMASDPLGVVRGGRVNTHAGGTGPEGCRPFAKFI
# Tests used:
# [1] = target: T1, Fc-tagged human FGFR4 ectodomain; assay: pull-down: Fc-FGFR on protein A/G beads, then FGF21 with PBS, FLAG-sKL or heparin; Western blot with anti-FGF21
# Procedure: To study the interaction between Fc-tagged FGFR isoforms (Fc-FGFR), FGF isoforms, and sKL, immunoprecipitation studies were conducted. Protein A beads (6501, BioVision) and protein G beads (6511, BioVision) were used at 25 μl of a 50% stock slurry per sample in a total bead volume of 50 μl. Beads were washed 5× in activity buffer (50 mM Tris [pH 7.4], 200 mM NaCl, 0.01% Tween 20). Bead spin-down assays were all performed for 2 minutes at 5000 g. Beads were resuspended in 1 ml of activity buffer in a 1.5-ml snap cap tube. One microgram of Fc-FGFR1 to 4 was incubated with the beads for 1 hour on a bead rotator. Control samples were incubated with 2 μg of anti-FGF antibody instead of Fc-FGFR. Beads were then pelleted at 5000 g for 2 minutes and washed 5× with activity buffer. Beads were resuspended and incubated with different combinations of 500 ng of FGF, 1 μg of sKL, 1.6 United States Pharmacopeia (USP) units of heparin, or phosphate-buffered saline (PBS). Beads were incubated for 1 hour on a tube rotator, and beads were pelleted and washed as before. One hundred microliters of 1× Laemmli sample buffer (1610737, Bio-Rad) with 1.42 M 2-mercaptoethanol was added, and samples were boiled for 5 minutes. Samples were analyzed using SDS-PAGE and Western blotting.
# [2] = target: T2, recombinant FGF23 protein (species not …); assay: plate assay: 100 ng FGF23 coated, 400 ng purified FLAG-tagged sKL-N694Q or wildtype, anti-FLAG-HRP (FIG. 25E)
# Procedure: Plates were coated with 100 ng of FGF23 or 200 ng of FGFR1c and incubated with 400 ng of purified FLAG-tagged wildtype sKL or sKL-N694Q.
fold increase in FGF23 binding against the wildtype protein [2],Binder,binding result [1]
,"human FGF21 (ligand, UniProt Q9NSA1 29-209, looked up) HPIPDSSPLLQFGGQVRQRYLYTDDAQQTEAHLEIREDGTVGGAADQSPESLLQLKALKPGVIQILGVKTSRFLCQRPDGALYGSLHFDPEACSFRELLLEDGYNVYQSEAHGLPLHLPGNKSPHRDPAPRGPARFLPLPGLPPALPEPPGILAPQPPDVGSSDPLSMVGPSQGRSPSYAS",no binding (tested: 500 ng FGF21 (Methods paragraph 182))
3 fold,"FLAG-tagged sKL-N694Q (receptor, Human assignment as for m24; Tested in HEK293 media and as protein purified from supernatants; also called N6940 and sKL-N6940; not shown: C-terminal FLAG/His tag) EPGDGAQTWARFSRPPAPEAAGLFQGTFPDGFLWAVGSAAYQTEGGWQQHGKGASIWDTFTHHPLAPPGDSRNASLPLGAPSPLQPATGDVASDSYNNVFRDTEALRELGVTHYRFSISWARVLPNGSAGVPNREGLRYYRRLLERLRELGVQPVVTLYHWDLPQRLQDAYGGWANRALADHFRDYAELCFRHFGGQVKYWITIDNPYVVAWHGYATGRLAPGIRGSPRLGYLVAHNLLLAHAKVWHLYNTSFRPTQGGQVSIALSSHWINPRRMTDHSIKECQKSLDFVLGWFAKPVFIDGDYPESMKNNLSSILPDFTESEKKFIKGTADFFALCFGPTLSFQLLDPHMKFRQLESPNLRQLLSWIDLEFNHPQIFIVENGWFVSGTTKRDDAKYMYYLKKFIMETLKAIKLDGVDVIGYTAWSLMDGFEWHRGYSIRRGLFYVDFLSQDKMLLPKSSALFYQKLIEKNGFPPLPENQPLEGTFPCDFAWGVVDNYIQVDTTLSQFTDLNVYLWDVHHSKRLIKVDGVVTKKRKSYCVDFAAIQPQIALLQEMHVTHFRFSLDWALILPLGNQSQVNHTILQYYRCMASELVRVNITPVVALWQPMAPNQGLPRLLARQGAWENPYTALAFAEYARLCFQELGHHVKLWITMNEPYTRQMTYSAGHNLLKAHALAWHVYNEKFRHAQNGKISIALQADWIEPACPFSQKDKEVAERVLEFDIGWLAEPIFGSGDYPWVMRDWLNQRNNFLLPYFTEDEKKLIQGTFDFLALSHYTTILVDSEKEDPIKYNDYLEVQEMTDITWLNSPSQVAVVPWGLRKVLNWLKFKYGDLPMYIISNGIDDGLHAEDDQLRVYYMQNYINEALKAHILDGINLCGYFAYSFNDRTAPRFGLYRYAADQFEPKASMKHYRKIIDSNGFPGPETLERFCPEEFTVCTECSFFHTRKS",
